# Positions count from the first letter of the chain named.
# T1: cynomolgus monkey SIRPα expressed on ExpiCHO-S cells (cynomolgus monkey, UniProt A0A2K5VYQ9 31-507)
# T1 construct: whole, on cells; also called cySIRPα; ExpiCHO-S (cySIRPα)
# T1 sequence: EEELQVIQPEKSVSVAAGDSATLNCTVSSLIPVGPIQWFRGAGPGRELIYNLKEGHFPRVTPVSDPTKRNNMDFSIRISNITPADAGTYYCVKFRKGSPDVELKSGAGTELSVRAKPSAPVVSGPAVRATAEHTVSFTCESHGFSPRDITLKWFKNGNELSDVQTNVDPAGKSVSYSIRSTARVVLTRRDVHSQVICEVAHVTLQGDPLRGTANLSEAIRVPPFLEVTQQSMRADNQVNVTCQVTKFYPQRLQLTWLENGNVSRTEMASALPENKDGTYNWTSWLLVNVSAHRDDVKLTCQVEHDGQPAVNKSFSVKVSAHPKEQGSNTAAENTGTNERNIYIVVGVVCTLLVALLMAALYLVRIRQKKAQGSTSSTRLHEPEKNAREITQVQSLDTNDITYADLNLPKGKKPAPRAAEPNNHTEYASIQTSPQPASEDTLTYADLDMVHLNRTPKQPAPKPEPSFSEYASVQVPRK
# B1: humanized anti-SIRPα antibody 7 (antibody, human IgG1, kappa, L234A L235A, V domains shown)
# VH: RQLVESGGGLVQPGGSLRLSCAASGFSLSSHGISWVRQAPGKGLEWVGTIGTGVITYYASWAKGRFTGSKTSSTAYLQMTSLRAEDTAVYYCARGSAWNDPFDYWGQGTLVTVSS
# VL: DIVMTQSPSSLSASVGDRVTITCQASQSVYGNNDLAWYQQKPGQAPKLLIYLASTLATGVPSRFSGSGSGTDFTLTISSLQPEDFATYYCLGGGDDEADNTFGQGTKVEIKR
# notes: human IgG1 LALA, kappa; also called mAb 7
# B2: humanized anti-SIRPα antibody 9 (antibody, human IgG1, kappa, L234A L235A, V domains shown)
# VH: B1 VH with A84S
# VL: B1 VL
# notes: human IgG1 LALA, kappa; also called mAb 9
# B3: humanized anti-SIRPα antibody 5 (antibody, human IgG1, kappa, L234A L235A, V domains shown)
# VH: B1 VH with W46Y, V47I
# VL: B1 VL with V3E, L11V, I21L, T101V, Q104G
# notes: human IgG1 LALA, kappa; also called mAb 5
# B4: humanized anti-SIRPα antibody 11 (antibody, human IgG1, kappa, L234A L235A, V domains shown)
# VH: B1 VH
# VL: B1 VL with V3E, L11V, I21L, T101V, Q104G
# notes: human IgG1 LALA, kappa; also called mAb 11
# B5: humanized anti-SIRPα antibody 1 (antibody, human IgG1, kappa, L234A L235A)
# heavy: not shown
# light: DIQMTQSPSSLSASVGDRVTITCRASQSINSYLAWYQQKPGKAPKLLIYSASFLYSGVPSRFSGSGSGTDFTLTISSLQPEDFATYYCQSWHYISRSYTFGQGTKVEIKRTVAAPSVFIFPPSDEQLKSGTASVVCLLNNFYPREAKVQWKVDNALQSGNSQESVTEQDSKDSTYSLSSTLTLSKADYEKHKVYACEVTHQGLSSPVTKSFNRGEC
# notes: human IgG1 LALA, kappa; also called mAb 1
# B6: humanized anti-SIRPα antibody 2 (antibody, human IgG1, kappa, L234A L235A)
# heavy: not shown
# light: B5 light
# notes: human IgG1 LALA, kappa; also called mAb 2
# B7: humanized anti-SIRPα antibody 13 (antibody, human IgG1, kappa, L234A L235A)
# heavy: not shown
# light: B5 light
# notes: human IgG1 LALA, kappa; also called mAb 13
# B8: humanized anti-SIRPα antibody 4 (antibody, human IgG1, kappa, L234A L235A)
# heavy: not shown
# light: B5 light
# notes: human IgG1 LALA, kappa; also called mAb 4
# B9: humanized anti-SIRPα antibody 3 (antibody, human IgG1, kappa, L234A L235A)
# heavy: not shown
# light: B5 light
# notes: human IgG1 LALA, kappa; also called mAb 3
# B10: humanized anti-SIRPα antibody 12 (antibody, human IgG1, kappa, L234A L235A)
# heavy: not shown
# light: B5 light
# notes: human IgG1 LALA, kappa; also called mAb 12
# Molecular target: T2, human SIRPαBIT expressed on cells (human, UniProt P78324 31-504)
# T2 construct: endogenous on U937 cells or transiently expressed on ExpiCHO-S cells; in the SHP-1 assay a ProLink-tagged form on Jurkat cells; also called huSIRPαBIT; U937 cells (huSIRPαBIT)
# Experiment: flow cytometry, U937 cells
# Description: (§1) After an incubation time of 30 min at 4° C., the cells were washed three times with ice-cold FACS buffer and 50 μl/well secondary mAb (for human antibodies, AffiniPure F(ab′)₂ fragment Goat-anti-human IgG-APC, 1:6,000 dilution, Jackson Immuno Research was added and for mouse antibodies, AffiniPure Fab fragment Goat Anti-Mouse IgG (H+L)-Alexa Fluor 488, 1:1,000 dilution, Jackson Immuno Research was added). After 30 min at 4° C., cells were washed twice and resuspended in 150 μl FACS buffer. Fluorescence intensities were determined by flow cytometry (BD FACSVerse, Franklin Lakes, N.J.) and indicated as the median fluorescence intensity (MFI-Median) for U937 cells and the mean fluorescence intensity (MFI-Mean) for ExpiCHO-S cells. Curves were fitted by nonlinear regression using the sigmoidal dose-response equation with variable slope (four parameters) in GraphPad Prism (version 7.02 for Windows, GraphPad, San Diego, Calif.). EC₅₀ values were calculated as the concentration in μg/ml that gives a response half way between bottom and top of the curve, when using a 4-parameter logistic fit.
row,EC50,Binder
1,3.55 µg/mL,B1
2,2.78 µg/mL,B2
3,1.6 µg/mL,B3
4,3.73 µg/mL,B4
5,0.09 µg/mL,B5
6,0.1 µg/mL,B6
7,0.08 µg/mL,B7
8,0.1 µg/mL,B8
9,0.12 µg/mL,B9
10,0.08 µg/mL,B10

# Molecular target: T3, human SIRPα1 expressed on cells (human, UniProt P78324 31-504)
# T3 construct: whole, on cells; also called huSIRPα1; ExpiCHO-S (huSIRPα1)
# Experiment: flow cytometry, ExpiCHO-S cells
# Description: as §1
row,EC50,Binder
1,0.2 µg/mL,B1
2,0.19 µg/mL,B2
3,0.22 µg/mL,B3
4,0.11 µg/mL,B4
5,0.28 µg/mL,B5
6,0.32 µg/mL,B6
7,0.27 µg/mL,B7
8,0.38 µg/mL,B8
9,0.4 µg/mL,B9
10,0.27 µg/mL,B10

# Molecular target: T2, human SIRPαBIT expressed on cells
# Experiment: flow cytometry, ExpiCHO-S cells
# Description: as §1
row,EC50,Binder
1,0.2 µg/mL,B1
2,0.11 µg/mL,B2
3,0.12 µg/mL,B3
4,0.08 µg/mL,B4
5,0.3 µg/mL,B5
6,0.31 µg/mL,B6
7,0.28 µg/mL,B7
8,0.36 µg/mL,B8
9,0.28 µg/mL,B9
10,0.26 µg/mL,B10

# Molecular target: T1, cynomolgus monkey SIRPα expressed on …
# Experiment: flow cytometry, ExpiCHO-S cells
# Description: as §1
row,EC50,Binder
1,1.91 µg/mL,B3
2,0.12 µg/mL,B5
3,0.12 µg/mL,B6
4,0.11 µg/mL,B7
5,0.14 µg/mL,B8
6,0.15 µg/mL,B9
7,0.23 µg/mL,B10

# Molecular target: T4, human SIRPα1 extracellular domain 1-370, Avi-FXa-Fc tag (human, biotinylated)
# T4 construct: also called huSIRPα1; v2
# T4 sequence (chain, as listed by the source limits assumed): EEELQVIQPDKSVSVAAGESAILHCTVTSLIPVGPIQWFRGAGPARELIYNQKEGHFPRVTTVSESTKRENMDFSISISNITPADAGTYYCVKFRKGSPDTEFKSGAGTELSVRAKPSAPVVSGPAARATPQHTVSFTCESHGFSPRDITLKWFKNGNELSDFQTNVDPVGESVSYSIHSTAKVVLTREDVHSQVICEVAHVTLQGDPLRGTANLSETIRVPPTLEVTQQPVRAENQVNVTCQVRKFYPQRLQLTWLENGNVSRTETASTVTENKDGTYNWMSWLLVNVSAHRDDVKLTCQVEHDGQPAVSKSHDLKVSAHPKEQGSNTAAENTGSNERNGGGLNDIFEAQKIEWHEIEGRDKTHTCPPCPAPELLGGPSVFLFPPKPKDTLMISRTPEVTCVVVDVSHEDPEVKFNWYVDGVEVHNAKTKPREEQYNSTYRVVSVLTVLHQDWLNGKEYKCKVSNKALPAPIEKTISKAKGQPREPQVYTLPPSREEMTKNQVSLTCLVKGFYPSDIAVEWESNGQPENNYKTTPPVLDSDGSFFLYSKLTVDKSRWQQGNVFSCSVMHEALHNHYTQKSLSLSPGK
# Experiment: SPR, captured biotinylated antigen
# Description: (§2) Surface Plasmon Resonance (SPR) assay: Affinity analysis was performed by single cycle kinetics analysis on a Surface Plasmon Resonance apparatus (BiaCore™ T200 system, GE Life Sciences) at 25° C. […] For each step an association time of 150 sec was used, followed by a dissociation time of 600 sec after the highest concentration only, all at a flow rate of 30 μl/min. Regeneration was performed with 6 M guanidine-HCl, 0.25 M NaOH solution (120 sec with flow rate of 30 μl/min). […] Sensorgrams were fitted with a 1:1 Langmuir model for all tested anti-SIRP antibodies. The kinetic parameters (association rate [kₐ], dissociation rate [kd] and binding constant, also referred to as equilibrium dissociation constant or binding affinity [KD]) were calculated using BiaCore™ T200 evaluation software (v3.1).
row,Kd,Binder
1,0.0171 nM,B1
2,0.0191 nM,B2
3,< 0.01 nM,B3
4,0.0349 nM,B4
5,1.49 nM,B5
6,1.34 nM,B6
7,1.41 nM,B7
8,1.38 nM,B8
9,0.908 nM,B9
10,1.38 nM,B10

# Molecular target: T5, human SIRPαBIT, extracellular domain 1-370, Avi-FXa-Fc tag (human, biotinylated)
# T5 construct: also called huSIRPαBIT; v1
# T5 sequence (chain, as listed by the source limits assumed): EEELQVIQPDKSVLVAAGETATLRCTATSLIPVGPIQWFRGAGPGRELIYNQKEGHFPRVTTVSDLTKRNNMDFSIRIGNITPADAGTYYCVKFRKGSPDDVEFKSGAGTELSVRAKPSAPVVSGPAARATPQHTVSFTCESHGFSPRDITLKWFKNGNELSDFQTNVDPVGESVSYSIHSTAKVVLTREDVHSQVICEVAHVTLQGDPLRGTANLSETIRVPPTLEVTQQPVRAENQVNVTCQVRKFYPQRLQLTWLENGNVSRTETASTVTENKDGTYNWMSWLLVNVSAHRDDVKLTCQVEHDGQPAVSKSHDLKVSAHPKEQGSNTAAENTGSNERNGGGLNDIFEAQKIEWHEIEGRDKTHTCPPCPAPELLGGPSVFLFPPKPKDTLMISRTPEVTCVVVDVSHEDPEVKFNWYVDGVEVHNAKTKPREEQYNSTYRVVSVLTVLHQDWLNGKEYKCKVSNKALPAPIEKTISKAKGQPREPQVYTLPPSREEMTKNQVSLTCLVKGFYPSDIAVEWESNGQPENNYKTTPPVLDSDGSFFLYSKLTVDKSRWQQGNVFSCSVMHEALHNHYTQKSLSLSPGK
# Experiment: SPR, captured biotinylated antigen
# Description: as §2
row,Kd,Binder
1,0.378 nM,B1
2,0.365 nM,B2
3,0.142 nM,B3
4,0.212 nM,B4
5,< 0.01 nM,B5
6,< 0.01 nM,B6
7,< 0.01 nM,B7
8,< 0.01 nM,B8
9,< 0.01 nM,B9
10,< 0.01 nM,B10

# Molecular target: T6, cynomolgus monkey SIRPα, extracellular domain, Avi-FXa-Fc tag (cynomolgus monkey, biotinylated)
# T6 construct: also called cySIRPα
# Experiment: SPR, captured biotinylated antigen
# Description: as §2
row,Kd,Binder
1,1.87 nM,B5
2,2.27 nM,B6
3,2.05 nM,B7
4,1.94 nM,B8
5,1.66 nM,B9
6,1.53 nM,B10

# Molecular target: T7, human SIRPγ, extracellular domain, Avi-FXa-Fc tag (human, biotinylated)
# T7 construct: also called huSIRPγ
# T7 sequence (chain, as listed by the source limits assumed): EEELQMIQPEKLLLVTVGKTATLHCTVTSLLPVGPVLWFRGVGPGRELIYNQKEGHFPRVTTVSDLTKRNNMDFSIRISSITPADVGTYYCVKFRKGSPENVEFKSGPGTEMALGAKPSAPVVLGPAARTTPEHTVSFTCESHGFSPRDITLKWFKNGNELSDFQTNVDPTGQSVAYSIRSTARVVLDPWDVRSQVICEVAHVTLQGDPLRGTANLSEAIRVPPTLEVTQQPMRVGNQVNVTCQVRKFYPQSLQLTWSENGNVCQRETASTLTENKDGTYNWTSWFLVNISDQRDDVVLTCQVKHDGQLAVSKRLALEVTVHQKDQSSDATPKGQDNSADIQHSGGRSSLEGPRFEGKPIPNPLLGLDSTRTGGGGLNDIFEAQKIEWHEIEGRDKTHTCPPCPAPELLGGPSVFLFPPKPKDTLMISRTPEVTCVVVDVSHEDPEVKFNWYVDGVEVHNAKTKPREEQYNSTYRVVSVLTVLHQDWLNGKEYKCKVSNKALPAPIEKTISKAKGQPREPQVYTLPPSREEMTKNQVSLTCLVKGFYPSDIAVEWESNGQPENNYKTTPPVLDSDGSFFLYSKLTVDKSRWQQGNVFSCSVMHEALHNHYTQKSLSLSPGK
# Experiment: SPR, captured biotinylated antigen
# Description: as §2
row,Binder,binding result
1,B1,no binding (tested: below 10 RU cut-off; up to 1600 ng/ml)
2,B2,no binding (tested: below 10 RU cut-off; up to 1600 ng/ml)
3,B3,no binding (tested: below 10 RU cut-off; up to 1600 ng/ml)
4,B4,no binding (tested: below 10 RU cut-off; up to 1600 ng/ml)
5,B5,no binding (tested: below 10 RU cut-off; up to 1600 ng/ml)
6,B6,no binding (tested: below 10 RU cut-off; up to 1600 ng/ml)
7,B7,no binding (tested: below 10 RU cut-off; up to 1600 ng/ml)
8,B8,no binding (tested: below 10 RU cut-off; up to 1600 ng/ml)
9,B9,no binding (tested: below 10 RU cut-off; up to 1600 ng/ml)
10,B10,no binding (tested: below 10 RU cut-off; up to 1600 ng/ml)

# Molecular target: T8, human SIRPβ1v2, extracellular domain, Avi-FXa-Fc tag (human, biotinylated)
# T8 construct: also called huSIRPβ1v2
# T8 sequence (chain, as listed by the source limits assumed): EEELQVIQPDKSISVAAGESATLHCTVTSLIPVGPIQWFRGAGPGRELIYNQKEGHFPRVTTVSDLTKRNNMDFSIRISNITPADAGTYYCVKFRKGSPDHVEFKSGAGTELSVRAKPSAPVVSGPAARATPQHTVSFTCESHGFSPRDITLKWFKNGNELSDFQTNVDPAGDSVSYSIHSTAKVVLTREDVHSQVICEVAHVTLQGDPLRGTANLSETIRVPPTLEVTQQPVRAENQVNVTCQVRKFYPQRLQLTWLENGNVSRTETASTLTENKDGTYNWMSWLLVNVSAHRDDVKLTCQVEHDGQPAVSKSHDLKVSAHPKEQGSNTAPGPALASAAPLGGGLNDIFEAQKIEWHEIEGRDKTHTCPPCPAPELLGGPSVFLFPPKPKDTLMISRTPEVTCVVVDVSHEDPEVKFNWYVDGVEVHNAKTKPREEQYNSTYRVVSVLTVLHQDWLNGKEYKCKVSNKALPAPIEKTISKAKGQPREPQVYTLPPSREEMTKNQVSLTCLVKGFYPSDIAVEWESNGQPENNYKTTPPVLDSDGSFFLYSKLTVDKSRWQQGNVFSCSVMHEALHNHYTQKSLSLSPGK
# Experiment: SPR, captured biotinylated antigen
# Description: as §2
row,Kd,Binder
1,2.97 nM,B3
2,2.42 nM,B5
3,2.54 nM,B6
4,2.78 nM,B7
5,2.34 nM,B8
6,1.92 nM,B9
7,1.94 nM,B10

# Molecular target: T9, human SIRPβ1v1, extracellular domain, Avi-FXa-Fc tag (human, biotinylated)
# T9 construct: also called huSIRPβ1v1
# T9 sequence (chain, as listed by the source limits assumed): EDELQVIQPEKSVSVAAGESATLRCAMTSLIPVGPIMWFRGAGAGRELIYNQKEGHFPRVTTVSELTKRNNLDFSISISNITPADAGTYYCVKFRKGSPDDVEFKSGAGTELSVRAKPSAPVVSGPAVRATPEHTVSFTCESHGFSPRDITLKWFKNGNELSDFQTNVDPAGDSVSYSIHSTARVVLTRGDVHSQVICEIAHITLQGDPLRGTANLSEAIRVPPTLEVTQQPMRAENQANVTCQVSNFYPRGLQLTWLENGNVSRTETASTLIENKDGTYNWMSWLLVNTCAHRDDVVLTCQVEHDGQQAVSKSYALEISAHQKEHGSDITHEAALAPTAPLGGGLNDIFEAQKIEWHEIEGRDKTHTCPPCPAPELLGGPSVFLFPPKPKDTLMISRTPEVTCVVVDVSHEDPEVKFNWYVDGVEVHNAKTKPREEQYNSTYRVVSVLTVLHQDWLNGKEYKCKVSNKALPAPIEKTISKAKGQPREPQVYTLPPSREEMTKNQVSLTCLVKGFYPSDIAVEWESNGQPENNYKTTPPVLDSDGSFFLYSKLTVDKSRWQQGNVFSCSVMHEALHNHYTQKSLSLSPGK
# Experiment: SPR, captured biotinylated antigen
# Description: as §2
row,Kd,Binder
1,1.65 nM,B1
2,1.44 nM,B2
3,0.593 nM,B3
4,2.01 nM,B4

# Molecular target: T6, cynomolgus monkey SIRPα, extracellular …
# Experiment: SPR, captured biotinylated antigen; sub-optimal fit
# Description: as §2
row,Kd,Binder
1,76.2 nM,B3

# Molecular target: T10, human SIRPγ on human CD3+ T-cells (human, UniProt Q9P1W8 29-387)
# T10 construct: whole, on cells
# T10 sequence (Q9P1W8 29-387): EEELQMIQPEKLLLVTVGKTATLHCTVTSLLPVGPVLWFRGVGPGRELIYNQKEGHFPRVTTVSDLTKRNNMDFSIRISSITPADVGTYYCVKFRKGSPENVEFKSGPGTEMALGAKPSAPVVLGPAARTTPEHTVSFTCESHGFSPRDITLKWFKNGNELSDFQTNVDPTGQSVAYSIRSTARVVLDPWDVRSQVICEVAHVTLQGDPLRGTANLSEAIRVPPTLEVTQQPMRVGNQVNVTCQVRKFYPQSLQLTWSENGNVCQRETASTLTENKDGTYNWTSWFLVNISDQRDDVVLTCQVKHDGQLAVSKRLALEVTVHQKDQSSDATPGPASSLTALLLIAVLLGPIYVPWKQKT
# Experiment: flow cytometry on CD3+ T-cells in PBMC of two healthy individuals, MFI
# Description: (§3) Flow Cytometry assay: Peripheral mononuclear cells (PBMC) were isolated from fresh blood of healthy individuals using Percoll gradient. […] Cells (200,000 cells/well in a 96-well plate) were subsequently incubated in the presence of tested antibodies or control conditions with secondary antibodies only (secondary goat anti-human IgG Alexa 633 F(ab′)₂ fragment, dilution 1:1000, Jackson Immuno Research, and secondary goat anti-mouse IgG Alexa 633 F(ab′)₂ fragment, dilution 1:250, Invitrogen) for 30 min on ice. After that, cells were washed with FACS buffer and resuspended in a mixture of anti-human CD3 FITC antibody (dilution 1:100, Invitrogen) with respective secondary antibody (either anti-human or anti-mouse) and incubated for 30 min in the dark on ice. Afterwards the cells were washed with FACS buffer and resuspended in 150 μl of FACS buffer and fluorescence intensities were determined by flow cytometry (LSRII HTS or LSRFortessa, BD Biosciences, CA, USA) and indicated as the median fluorescence intensity (MFI-Median) and percentage of positive cells.
row,binding result,Binder
1,no binding,B2
2,no binding,B4
3,no binding,B7
4,no binding,B10

# Molecular target: T10, human SIRPγ on human CD3+ T-cells
# Experiment: flow cytometry on CD3+ T-cells in PBMC of two healthy individuals, % of positive cells
# Description: as §3
row,binding result,Binder
1,no binding,B1
2,no binding,B3
3,no binding,B5
4,no binding,B6
5,no binding,B8
6,no binding,B9

# Reference: patent US20210388107A1 (BYONDIS B V, published 2021)
